{"source": "patent US20150307603A1", "about": "(MODIQUEST B V, published 2015)", "binders": {"B1": {"name": "RhmAb2.102 (antibody, human IgG1, lambda)", "heavy": "not shown", "light": "QSVLTQPPSMSAAPGQKVTISCSGSSSNIGNNYVSWYQQVPGTAPKLLIYDDNKRPSGIPGRFSGSKSATSATLGITGLQAGDEADYYCGSWDDNLSVVLFGGGTKLTVLGQPKAAPSVTLFPPSSEELQANKATLVCLISDFYPGAVTVAWKADSSPVKAGVETTTPSKQSNNKYAASSYLSLTPEQWKSHRSYSCQVTHEGSTVEKTVAPTECS", "notes": "Human IgG1 lambda; also called Rhm2.102"}}, "key": {"[1]": {"biological_target": "T1, peptide no. 7 (human histone 2A) (human, also: biotin-labelled)", "T1 construct": "also called peptide 7", "T1 peptide": "GNYSE[Cit]VGAGAP", "test": "ELISA, Ab 0.0032 ug/well", "description": "(§1) Biotin and citrulline-containing peptides derived from histone 2A were immobilized on NEUTRAVIDIN®-coated 96-well ELISA plates (0.3 μg/well). CFC-1 and CFC-0 were coated at the same concentration and served as positive and negative controls, respectively, for specific anti-citrulline reactivity and as coating controls. Non-coated wells were used to test for aspecific binding of the antibodies. […] Detection of bound anti-citrulline antibodies was performed by incubating the wells with rabbit anti-human HRP (1:2000) for 1 hour at RT followed by incubation with TMB substrate. The resulting OD (y-axis) is a measure for antibody binding."}, "[2]": {"biological_target": "T2, peptide no. 4 (human histone 2A) (human, also: biotin-labelled)", "T2 construct": "also called peptide 4", "T2 peptide": "QFPVG[Cit]VHRLLR", "test": "ELISA, Ab 10 ug/well", "description": "as §1"}, "[3]": {"biological_target": "T3, peptide no. 11 (human histone 2A) (human, also: biotin-labelled)", "T3 construct": "also called peptide 11", "T3 peptide": "LQLAI[Cit]NDEELN", "test": "ELISA, Ab 10 ug/well", "description": "as §1"}, "[4]": {"biological_target": "T4, peptide no. 6 (human histone 2A) (human, also: biotin-labelled)", "T4 construct": "also called peptide 6", "T4 peptide": "VHRLL[Cit]KGNYSE", "test": "ELISA, Ab 10 ug/well", "description": "as §1"}, "[5]": {"biological_target": "T5, peptide no. 1 (human histone 2A) (human, also: biotin-labelled)", "T5 construct": "also called peptide 1; AAASGXGKQGGK", "T5 peptide": "AAASG[Cit]GKQGGK", "test": "ELISA, Ab 10 ug/well", "description": "as §1"}, "[6]": {"biological_target": "T6, peptide no. 10 (human histone 2A) (human, also: biotin-labelled)", "T6 construct": "also called peptide 10", "T6 peptide": "TRIIP[Cit]HLQLAI", "test": "ELISA, Ab 10 ug/well", "description": "as §1"}, "CFC-1 [7]": {"biological_target": "T7, CFC-1", "T7 construct": "Positive control for anti-citrulline reactivity; also called cfc1 XG; Cfc1-peptide", "test": "ELISA, Ab 10 ug/well", "description": "as §1"}, "[8]": {"biological_target": "T8, peptide no. 5 (human histone 2A) (human, also: biotin-labelled)", "T8 construct": "also called peptide 5", "T8 peptide": "VGRVH[Cit]LLRKGN", "test": "ELISA, Ab 10 ug/well", "description": "as §1"}, "[9]": {"biological_target": "T1, peptide no. 7 (human histone 2A)", "test": "ELISA, Ab 10 ug/well", "description": "as §1"}, "[10]": {"biological_target": "T9, peptide no. 12 (human histone 2A) (human, also: biotin-labelled)", "T9 construct": "also called peptide 12", "T9 peptide": "NKLLG[Cit]VTIAQG", "test": "ELISA, Ab 10 ug/well", "description": "as §1"}, "[11]": {"biological_target": "T10, peptide no. 8 (human histone 2A) (human, also: biotin-labelled)", "T10 construct": "also called peptide 8", "T10 peptide": "AGNAA[Cit]DNKKTR", "test": "ELISA, Ab 10 ug/well", "description": "as §1"}, "[12]": {"biological_target": "T11, peptide no. 3 (human histone 2A) (human, also: biotin-labelled)", "T11 construct": "also called peptide 3", "T11 peptide": "KSRSS[Cit]AGLQFP", "test": "ELISA, Ab 10 ug/well", "description": "as §1"}, "[13]": {"biological_target": "T12, peptide no. 2 (human histone 2A) (human, also: biotin-labelled)", "T12 construct": "also called peptide 2", "T12 peptide": "AKAKS[Cit]SSRAGL", "test": "ELISA, Ab 10 ug/well", "description": "as §1"}, "[14]": {"biological_target": "T13, peptide no. 9 (human histone 2A) (human, also: biotin-labelled)", "T13 construct": "also called peptide 9", "T13 peptide": "DNKKT[Cit]IIPRHL", "test": "ELISA, Ab 10 ug/well", "description": "as §1"}, "[15]": {"biological_target": "PREDICTED: similar to 60S ribosomal protein L29 (Cell surface heparin-binding protein HIP) [Homo sapiens] (Homo sapiens)", "test": "IP of deiminated HEK293 lysate + MS emPAI; reference RhmAb2.101", "experimental": "(§3) Beads were subjected to three washes with 1 ml IPP500, one wash with 1 ml IPP150 (10 mM Tris/HCl pH 8.0, 150 mM NaCl, 0.1% NP40 and 0.1% TWEEN®-20), and subsequently incubated at room temperature with 300 p1 deiminated HEK293 lysate for 2 hours under constant rotation. Beads were washed three times with 1 ml of IPP150, after which a small part has been used for SDS-PAGE electrophoresis to determine if the IP procedure with the HEK293 cells was successful.\n(§4) The exponentially modified protein abundance index (emPAI) was calculated for all validated proteins."}, "[16]": {"biological_target": "ribosomal protein L29 [Homo sapiens] (Homo sapiens)", "test": "IP of deiminated HEK293 lysate + MS emPAI; reference RhmAb2.101", "experimental": "as §3, §4"}, "[17]": {"biological_target": "T2, peptide no. 4 (human histone 2A)", "test": "ELISA, Ab 2 ug/well", "description": "as §1"}, "[18]": {"biological_target": "T3, peptide no. 11 (human histone 2A)", "test": "ELISA, Ab 2 ug/well", "description": "as §1"}, "[19]": {"biological_target": "T4, peptide no. 6 (human histone 2A)", "test": "ELISA, Ab 2 ug/well", "description": "as §1"}, "[20]": {"biological_target": "T5, peptide no. 1 (human histone 2A)", "test": "ELISA, Ab 2 ug/well", "description": "as §1"}, "[21]": {"biological_target": "T6, peptide no. 10 (human histone 2A)", "test": "ELISA, Ab 2 ug/well", "description": "as §1"}, "CFC-1 [22]": {"biological_target": "T7, CFC-1", "test": "ELISA, Ab 2 ug/well", "description": "as §1"}, "[23]": {"biological_target": "T8, peptide no. 5 (human histone 2A)", "test": "ELISA, Ab 2 ug/well", "description": "as §1"}, "[24]": {"biological_target": "T1, peptide no. 7 (human histone 2A)", "test": "ELISA, Ab 2 ug/well", "description": "as §1"}, "[25]": {"biological_target": "T9, peptide no. 12 (human histone 2A)", "test": "ELISA, Ab 2 ug/well", "description": "as §1"}, "[26]": {"biological_target": "T10, peptide no. 8 (human histone 2A)", "test": "ELISA, Ab 2 ug/well", "description": "as §1"}, "[27]": {"biological_target": "T11, peptide no. 3 (human histone 2A)", "test": "ELISA, Ab 2 ug/well", "description": "as §1"}, "[28]": {"biological_target": "T12, peptide no. 2 (human histone 2A)", "test": "ELISA, Ab 2 ug/well", "description": "as §1"}, "[29]": {"biological_target": "T13, peptide no. 9 (human histone 2A)", "test": "ELISA, Ab 2 ug/well", "description": "as §1"}, "[30]": {"biological_target": "T14, huPAD4-deiminated human recombinant histone 2A (human)", "T14 construct": "also called H2A/p4; histone 2A/p4", "test": "ELISA, Ab 0.0032 ug/well", "excerpt": "(§2) The resulting OD (y-axis) is a measure for antibody binding. H1-recombinant histone 1; H1/p2-huPAD2 recombinant histone 1; H1/p4-huPAD4 recombinant histone 1, and so forth (x-axis)."}, "[31]": {"biological_target": "T15, huPAD2-deiminated human recombinant histone 3 (human)", "T15 construct": "also called H3/p2; histone 3/p2", "test": "ELISA, Ab 0.0032 ug/well", "excerpt": "as §2"}, "[32]": {"biological_target": "human recombinant histone 4 (human, UniProt P62805 2-103)", "test": "ELISA, Ab 0.0032 ug/well", "excerpt": "as §2"}}, "note": "Non-standard residues stand in square brackets, D forms with d. No end group written: not given here. Cit = NC(=O)NCCC[C@H](N)C(=O)O"}
{"binder": "B1", "values": [{"measurement": "OD", "setting": "[1]", "value": 0.064, "unit": "OD450"}, {"measurement": "OD", "setting": "[2]", "value": 2.06, "unit": "OD450"}, {"measurement": "OD", "setting": "[3]", "value": 0.088, "unit": "OD450"}, {"measurement": "OD", "setting": "[4]", "value": 1.41, "unit": "OD450"}, {"measurement": "OD", "setting": "[5]", "value": 3.11, "unit": "OD450"}, {"measurement": "OD", "setting": "[6]", "value": 0.091, "unit": "OD450"}, {"measurement": "OD", "setting": "CFC-1 [7]", "value": 3.27, "unit": "OD450"}, {"measurement": "OD", "setting": "[8]", "value": 0.239, "unit": "OD450"}, {"measurement": "OD", "setting": "[9]", "value": 0.08, "unit": "OD450"}, {"measurement": "OD", "setting": "[10]", "value": 0.083, "unit": "OD450"}, {"measurement": "OD", "setting": "[11]", "value": 0.082, "unit": "OD450"}, {"measurement": "OD", "setting": "[12]", "value": 0.619, "unit": "OD450"}, {"measurement": "OD", "setting": "[13]", "value": 0.552, "unit": "OD450"}, {"measurement": "OD", "setting": "[14]", "value": 0.09, "unit": "OD450"}, {"measurement": "Ratio 102/101 (emPAI)", "setting": "[15]", "value": 1, "unit": "ratio"}, {"measurement": "Ratio 102/101 (emPAI)", "setting": "[16]", "value": 0.5, "unit": "ratio"}, {"measurement": "OD", "setting": "[17]", "value": 1.3, "unit": "OD450"}, {"measurement": "OD", "setting": "[18]", "value": 0.067, "unit": "OD450"}, {"measurement": "OD", "setting": "[19]", "value": 0.752, "unit": "OD450"}, {"measurement": "OD", "setting": "[20]", "value": 3.05, "unit": "OD450"}, {"measurement": "OD", "setting": "[21]", "value": 0.07, "unit": "OD450"}, {"measurement": "OD", "setting": "CFC-1 [22]", "value": 3.21, "unit": "OD450"}, {"measurement": "OD", "setting": "[23]", "value": 0.111, "unit": "OD450"}, {"measurement": "OD", "setting": "[24]", "value": 0.059, "unit": "OD450"}, {"measurement": "OD", "setting": "[25]", "value": 0.067, "unit": "OD450"}, {"measurement": "OD", "setting": "[26]", "value": 0.06, "unit": "OD450"}, {"measurement": "OD", "setting": "[27]", "value": 0.286, "unit": "OD450"}, {"measurement": "OD", "setting": "[28]", "value": 0.27, "unit": "OD450"}, {"measurement": "OD", "setting": "[29]", "value": 0.063, "unit": "OD450"}, {"measurement": "OD", "setting": "[30]", "value": 0.135, "unit": "OD450"}, {"measurement": "OD", "setting": "[31]", "value": 0.08, "unit": "OD450"}, {"measurement": "OD", "setting": "[32]", "value": 0.06, "unit": "OD450"}]}
